Assay results reported in PMC12554172, “Systematic analysis of the RGS2 degron reveals characteristics of substrate recognition by the F-box protein FBXO44” (The Journal of Biological Chemistry, 2025).

Tests used:
FBXO44^FBA = biological target: T1, FBXO44^FBA (Homo sapiens, UniProt Q9H4M3); assay: Peptide microarray (PEPperPRINT), FLAG-FBXO44^FBA binding; conditions: 2 μg/ml FBXO44^FBA overnight at 4 °C; for Mean % difference from parent peptide (FLAG immunoreactivity): Table S1, RGS2^5–16 single-residue substitution, PBS 0.005% Tween pH 7.4, anti-FLAG DyLight800 fluorescence, three independent experiments with three technical replicates each; for FBXO44^FBA binding in peptide microarray (in words): versus parent RGS2^5–16 peptide, fluorescence
T1 construct: we expressed and purified only this domain for all in vitro studies; 6xHis (N, cleaved yes); MBP (N, cleaved yes); made in house; host or cells: Escherichia coli Rosetta BL21 (λDE3)
T1 sequence (Q9H4M3 71-252 limits assumed): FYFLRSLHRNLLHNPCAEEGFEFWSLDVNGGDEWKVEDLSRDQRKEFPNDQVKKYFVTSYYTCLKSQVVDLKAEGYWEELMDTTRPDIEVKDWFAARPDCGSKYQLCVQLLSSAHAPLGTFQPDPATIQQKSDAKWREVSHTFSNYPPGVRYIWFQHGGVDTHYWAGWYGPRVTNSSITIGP
Description: To do so, we utilized a custom peptide microarray (PEPperPRINT GmbH). The design of this array was twofold: (1) substitution at each position with every other natural eukaryotic amino acid; (2) truncation of the peptide from the C terminus. We assessed the binding of FLAG-FBXO44^FBA to the array utilizing fluorescence immunoreactivity corresponding to the amount of FLAG-FBXO44^FBA bound. […] Substitutions at Asp^12 were not only tolerated but also seemed to improve binding in every case (Fig. 3B). This, combined with the fact that substituting any residue in His^11–Met^16 with Arg, and in most cases with Lys, improved FBXO44^FBA binding, indicating the presence of negative charges at the binding interface.
Figure 2 Systematic mutation of the RGS2 degron alters FBXO44^FBA binding. A custom microarray (PEPperPRINT) was designed where each position of the RGS2^5–16 peptide was substituted for each natural amino acid. We also included truncated peptides on the array. This was incubated with purified FBXO44^FBA and probed with α-FLAG. A, a representative scan of a peptide microarray (top) and a truncated peptide (bottom). B, heatmap of mean fluorescence of quantified microarray scans. The scale represents the mean fluorescence in percentage points across all replicates, normalized to the signal obtained with the original residue at each position. C, heatmap of standard deviation of quantified microarray scans. The scale represents the standard deviation in percentage points across all replicates. […] Residues are color-coded based on properties: blue, positive charge; red, negative charge; orange, uncharged polar; green, hydrophobic; yellow, Cys (C); bright green, Pro (P); and black, Gly (G). […] Results of three independent experiments with three technical replicates each. For a statistical significance summary, see Table S1. FBXO44, F-box only protein 44; RGS2, regulator of G protein signaling 2.
Figure 3 Effects of RGS2^5–16 peptide residue changes on FBXO44^FBA binding. Data are presented as % FLAG immunoreactivity, as compared with the parent peptide residue. […] The original residue is marked in each graph with a vertical dotted line. Boxes extend from the 25th to 75th percentile with a line marking the median. Whiskers extend to the minimum and maximum. Results of three independent experiments with three technical replicates each. Data were analyzed by two-way ANOVA, with Tukey's post hoc test for pairwise comparison (simple effect within columns). Statistical significance is summarized in Table S1 and color-coded according to the legend. FBXO44, F-box only protein 44; RGS2, regulator of G protein signaling 2.
The microarray slide was seated into the incubation tray according to PEPperPRINT's instructions. The array well was then incubated in washing buffer (PBS) with 0.005% Tween (Sigma; P1379, pH 7.4) at room temperature for 15 min on an orbital shaker. Washing buffer was aspirated, and the array was then incubated with Rockland blocking buffer at room temperature for 30 min on an orbital shaker. Blocking buffer was then aspirated, and the array was incubated in staining buffer (washing buffer with 10% Rockland blocking buffer) at room temperature for 15 min on an orbital shaker. Staining buffer was aspirated, and purified FBXO44 FBA domain diluted to 2 μg/ml in staining buffer was added. The array was then placed on an orbital shaker overnight at 4 °C. The FBA domain solution was removed, and an array was washed three times with washing buffer. After the third array was incubated in staining buffer for 15 min at 4 °C on an orbital shaker. The array was then incubated with antibody dilution (anti-FLAG DyLight800 and anti-HA DyLight680, both diluted 1:2000 in staining buffer) for 45 min at 4° C on an orbital shaker. The array was then washed three times with washing buffer. […]

HEK-293T cells = assay: RGS2 protein levels, baseline and with proteasome inhibitor MG-132; type: cell-based, human; conditions: Fig. S4, five or six independent experiments; for basal RGS2 protein expression versus RGS2^WT (Fig. S4): no MG-132; for change of RGS2 protein levels with MG-132 (Fig. S4): MG-132 10 μM, 4 h
Description: Representative Western blot and quantification of three independent experiments. […] Representative Western blot and quantification of three independent experiments. Representative Western blot (D), quantification of knockdown efficiency (E), and effects on RGS protein levels (F) when FBXO44 is knocked down using siRNA. […] Result of three independent experiments. ∗p < 0.05; ∗∗p < 0.01; ∗∗∗p < 0.001 using two-way ANOVA followed by Tukey's post hoc test for pairwise comparisons (C, E, and F). FBXO44, F-box only protein 44; HEK-293T, human embryonic kidney-293T cell line; RGS2, regulator of G protein signaling 2.
Cells were harvested on ice in lysis buffer containing protease inhibitors (50 mM Tris–HCl [pH 7.4], 5 mM NaCl, 0.5 mM EDTA, 1% Triton X-100, 10% cOmplete Protease Inhibitor Cocktail EDTA-free). Lysates were bath sonicated for 10 min at 4 °C, centrifuged at 6000g for 3 min, and the supernatant was used for SDS-PAGE and immunoblotting. Total protein concentration was determined using the Pierce BCA Protein Assay Kit. Samples were diluted to 1 μg/μl in protein sample loading buffer (Li-Cor Biosciences).
Equal amounts of protein in each lane were resolved on a 12% SDS-PAGE gel for 1 h at 160 V. Samples were transferred to an Immobilon-FL PVDF membrane (Millipore) and subjected to Western immunoblot analysis using Li-Cor blocking buffer for both blocking and antibody diluents. Membranes were blocked for 1 h, then incubated for 2 h in primary antibodies as described under “Antibodies,” and finally incubated for 1 h with IRDye secondary antibodies directed at the species of the primary antibody. Following each antibody incubation, membranes were washed four times in PBS with 0.1% Tween-20. Membranes were imaged using an Azure600 imaging system (Azure Biosystems).
Figure S4. Effect of RGS2 mutations on protein stability. Representative western blot and quantification of five or six independent experiments (varies by mutation). The proteasome inhibitor MG-132 (10 μM, 4 h) […]
P15R were predicted to destabilize RGS2, due to increased binding to FBXO44 in the peptide microarray. […]
significant. *P<0.05; ***P<0.001 using two-way ANOVA followed by Tukey’s post hoc test for pairwise

| Substance | Mean % difference from parent peptide (FLAG immunoreactivity) (FBXO44^FBA) | FBXO44^FBA binding in peptide microarray (in words) (FBXO44^FBA) | basal RGS2 protein expression versus RGS2^WT (Fig. S4) (HEK-293T cells) | change of RGS2 protein levels with MG-132 (Fig. S4) (HEK-293T cells) |
| --- | --- | --- | --- | --- |
| D12R: array RGS2^5–16 peptide, D12 substituted by R (MFLAVQHRCRPM) | 184.9% | enhanced FBXO44^FBA binding | trend towards decreased expression |  |
| D12T: array RGS2^5–16 peptide, D12 substituted by T (MFLAVQHTCRPM; UniProt P41220 5-16, looked up, variant D12T) | 32.23% |  |  |  |
| D12V: array RGS2^5–16 peptide, D12 substituted by V (MFLAVQHVCRPM; UniProt P41220 5-16, looked up, variant D12V) | 40.66% |  |  |  |
| D12W: array RGS2^5–16 peptide, D12 substituted by W (MFLAVQHWCRPM; UniProt P41220 5-16, looked up, variant D12W) | 48.95% |  |  |  |
| D12Y: array RGS2^5–16 peptide, D12 substituted by Y (MFLAVQHYCRPM; UniProt P41220 5-16, looked up, variant D12Y) | 31.8% |  |  |  |
| H11R: array RGS2^5–16 peptide, H11 substituted by R (MFLAVQRDCRPM) | 41.19% | modest effects, with only one or two substitutions for each reaching significance |  |  |
| M16A: array RGS2^5–16 peptide, M16 substituted by A (MFLAVQHDCRPA; UniProt P41220 5-16, looked up, variant M16A) | -33.89% |  |  |  |
| M16C: array RGS2^5–16 peptide, M16 substituted by C | 30.03% |  |  |  |
| M16D: array RGS2^5–16 peptide, M16 substituted by D (MFLAVQHDCRPD; UniProt P41220 5-16, looked up, variant M16D) | 31.28% |  |  |  |
| M16G: array RGS2^5–16 peptide, M16 substituted by G (MFLAVQHDCRPG; UniProt P41220 5-16, looked up, variant M16G) | -27.86% |  |  |  |
| M16K: array RGS2^5–16 peptide, M16 substituted by K (MFLAVQHDCRPK; UniProt P41220 5-16, looked up, variant M16K) | 38.94% |  |  |  |
| M16R: array RGS2^5–16 peptide, M16 substituted by R (MFLAVQHDCRPR; UniProt P41220 5-16, looked up, variant M16R) | 101.4% |  |  |  |
| P15A: array RGS2^5–16 peptide, P15 substituted by A | -27.06% |  |  |  |
| P15C: array RGS2^5–16 peptide, P15 substituted by C | 26.71% |  |  |  |
| P15D: array RGS2^5–16 peptide, P15 substituted by D (MFLAVQHDCRDM; UniProt P41220 5-16, looked up, variant P15D) | 31.74% |  |  |  |
| P15G: array RGS2^5–16 peptide, P15 substituted by G | -30.63% | decreased binding | none of these mutations resulted in significant changes in basal expression | none of these mutations resulted in significant changes in basal expression or response to MG-132 |
| P15K: array RGS2^5–16 peptide, P15 substituted by K (MFLAVQHDCRKM; UniProt P41220 5-16, looked up, variant P15K) | 52.32% |  |  |  |
| P15R: array RGS2^5–16 peptide, P15 substituted by R (MFLAVQHDCRRM) | 158% | enhanced FBXO44^FBA binding | none of these mutations resulted in significant changes in basal expression | none of these mutations resulted in significant changes in basal expression or response to MG-132 |
| R14A: array RGS2^5–16 peptide, R14 substituted by A (MFLAVQHDCAPM) | -27.71% | modest effects, with only one or two substitutions for each reaching significance |  |  |
| R14W: array RGS2^5–16 peptide, R14 substituted by W (MFLAVQHDCWPM) | 32.54% | modest effects, with only one or two substitutions for each reaching significance |  |  |
